According to patent US20260098059A1 (ENDOMET BIOSCIENCES, published 2026):
Values joined by “and” are separate entries in the source; they are usually repeats but may differ in a detail not shown here. Identical values can stand only once. [ ]: non-standard residue; d: D form. Trp(1-Me) = Cn1cc(C[C@H](N)C(=O)O)c2ccccc21; αMeW = C[C@](N)(Cc1c[nH]c2ccccc12)C(=O)O; Trp(3-Me) = 3-methyltryptophan; αMeL = CC(C)C[C@](C)(N)C(=O)O

T1: β-catenin (UniProt P35222 134-665, limits assumed, biotinylated in the SPR and plate assays)
T1 sequence (looked up): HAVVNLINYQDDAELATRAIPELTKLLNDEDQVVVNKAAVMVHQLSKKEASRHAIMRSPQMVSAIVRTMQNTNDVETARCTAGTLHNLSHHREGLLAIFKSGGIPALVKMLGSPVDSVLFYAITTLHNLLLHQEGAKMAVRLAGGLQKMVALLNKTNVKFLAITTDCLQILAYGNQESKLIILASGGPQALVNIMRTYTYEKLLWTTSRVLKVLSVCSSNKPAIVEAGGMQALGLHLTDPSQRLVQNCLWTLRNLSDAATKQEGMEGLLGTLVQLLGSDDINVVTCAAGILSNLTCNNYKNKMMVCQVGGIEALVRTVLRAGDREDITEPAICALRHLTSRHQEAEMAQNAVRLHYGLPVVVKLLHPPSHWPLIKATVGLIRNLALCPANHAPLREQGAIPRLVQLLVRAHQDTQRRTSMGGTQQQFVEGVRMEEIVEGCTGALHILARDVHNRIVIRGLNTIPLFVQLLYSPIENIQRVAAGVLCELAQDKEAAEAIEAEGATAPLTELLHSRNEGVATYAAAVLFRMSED

B1: SEQ ID NO: 167 (peptide)
peptide: KMWFLICAWD
HELM: PEPTIDE1{K.M.W.F.L.I.C.A.W.D}$PEPTIDE1,PEPTIDE1,1:R3-10:R3$$$V2.0
SMILES: CC[C@H](C)[C@@H]1NC(=O)[C@H](CC(C)C)NC(=O)[C@H](Cc2ccccc2)NC(=O)[C@H](Cc2c[nH]c3ccccc23)NC(=O)[C@H](CCSC)NC(=O)[C@@H](N)CCCCNC(=O)C[C@@H](C(=O)O)NC(=O)[C@H](Cc2c[nH]c3ccccc23)NC(=O)[C@H](C)NC(=O)[C@H](CS)NC1=O
B2: SEQ ID NO: 170 (peptide)
peptide: KMWFLICFWD
HELM: PEPTIDE1{K.M.W.F.L.I.C.F.W.D}$PEPTIDE1,PEPTIDE1,1:R3-10:R3$$$V2.0
SMILES: CC[C@H](C)[C@@H]1NC(=O)[C@H](CC(C)C)NC(=O)[C@H](Cc2ccccc2)NC(=O)[C@H](Cc2c[nH]c3ccccc23)NC(=O)[C@H](CCSC)NC(=O)[C@@H](N)CCCCNC(=O)C[C@@H](C(=O)O)NC(=O)[C@H](Cc2c[nH]c3ccccc23)NC(=O)[C@H](Cc2ccccc2)NC(=O)[C@H](CS)NC1=O
B3: SEQ ID NO: 171 (peptide)
peptide: KMWFLISFWD
HELM: PEPTIDE1{K.M.W.F.L.I.S.F.W.D}$PEPTIDE1,PEPTIDE1,1:R3-10:R3$$$V2.0
SMILES: CC[C@H](C)[C@@H]1NC(=O)[C@H](CC(C)C)NC(=O)[C@H](Cc2ccccc2)NC(=O)[C@H](Cc2c[nH]c3ccccc23)NC(=O)[C@H](CCSC)NC(=O)[C@@H](N)CCCCNC(=O)C[C@@H](C(=O)O)NC(=O)[C@H](Cc2c[nH]c3ccccc23)NC(=O)[C@H](Cc2ccccc2)NC(=O)[C@H](CO)NC1=O
B4: SEQ ID NO: 120 (peptide)
peptide: KWILICFWD
HELM: PEPTIDE1{K.W.I.L.I.C.F.W.D}$PEPTIDE1,PEPTIDE1,1:R3-9:R3$$$V2.0
SMILES: CC[C@H](C)[C@@H]1NC(=O)[C@H](CC(C)C)NC(=O)[C@H]([C@@H](C)CC)NC(=O)[C@H](Cc2c[nH]c3ccccc23)NC(=O)[C@@H](N)CCCCNC(=O)C[C@@H](C(=O)O)NC(=O)[C@H](Cc2c[nH]c3ccccc23)NC(=O)[C@H](Cc2ccccc2)NC(=O)[C@H](CS)NC1=O
B5: SEQ ID NO: 141 (peptide)
peptide: VWFLICFWG
HELM: PEPTIDE1{[Nva].W.F.L.I.C.F.W.G}$$$$V2.0
SMILES: CCC[C@H](N)C(=O)N[C@@H](Cc1c[nH]c2ccccc12)C(=O)N[C@@H](Cc1ccccc1)C(=O)N[C@@H](CC(C)C)C(=O)N[C@H](C(=O)N[C@@H](CS)C(=O)N[C@@H](Cc1ccccc1)C(=O)N[C@@H](Cc1c[nH]c2ccccc12)C(=O)NCC(=O)O)[C@@H](C)CC
B6: SEQ ID NO: 147 (peptide)
peptide: MWFLICFWD
HELM: PEPTIDE1{[O=C(CCCN[*:1])[*:2]].M.W.F.L.I.C.F.W.D}$PEPTIDE1,PEPTIDE1,1:R1-10:R3$$$V2.0
SMILES: CC[C@H](C)[C@@H]1NC(=O)[C@H](CC(C)C)NC(=O)[C@H](Cc2ccccc2)NC(=O)[C@H](Cc2c[nH]c3ccccc23)NC(=O)[C@H](CCSC)NC(=O)CCCNC(=O)C[C@@H](C(=O)O)NC(=O)[C@H](Cc2c[nH]c3ccccc23)NC(=O)[C@H](Cc2ccccc2)NC(=O)[C@H](CS)NC1=O
B7: SEQ ID NO: 168 (peptide)
peptide: KWFLICAWD
HELM: PEPTIDE1{K.W.F.L.I.C.A.W.D}$PEPTIDE1,PEPTIDE1,1:R3-9:R3$$$V2.0
SMILES: CC[C@H](C)[C@@H]1NC(=O)[C@H](CC(C)C)NC(=O)[C@H](Cc2ccccc2)NC(=O)[C@H](Cc2c[nH]c3ccccc23)NC(=O)[C@@H](N)CCCCNC(=O)C[C@@H](C(=O)O)NC(=O)[C@H](Cc2c[nH]c3ccccc23)NC(=O)[C@H](C)NC(=O)[C@H](CS)NC1=O
B8: SEQ ID NO: 169 (peptide)
peptide: KWFLICAWD
HELM: PEPTIDE1{[ac].K.W.F.L.I.C.A.W.D}$PEPTIDE1,PEPTIDE1,2:R3-10:R3$$$V2.0
SMILES: CC[C@H](C)[C@@H]1NC(=O)[C@H](CC(C)C)NC(=O)[C@H](Cc2ccccc2)NC(=O)[C@H](Cc2c[nH]c3ccccc23)NC(=O)[C@@H](NC(C)=O)CCCCNC(=O)C[C@@H](C(=O)O)NC(=O)[C@H](Cc2c[nH]c3ccccc23)NC(=O)[C@H](C)NC(=O)[C@H](CS)NC1=O
B9: SEQ ID NO: 172 (peptide)
peptide: KWFLICFWD
HELM: PEPTIDE1{K.W.F.L.I.C.F.W.D}$PEPTIDE1,PEPTIDE1,1:R3-9:R3$$$V2.0
SMILES: CC[C@H](C)[C@@H]1NC(=O)[C@H](CC(C)C)NC(=O)[C@H](Cc2ccccc2)NC(=O)[C@H](Cc2c[nH]c3ccccc23)NC(=O)[C@@H](N)CCCCNC(=O)C[C@@H](C(=O)O)NC(=O)[C@H](Cc2c[nH]c3ccccc23)NC(=O)[C@H](Cc2ccccc2)NC(=O)[C@H](CS)NC1=O
B10: SEQ ID NO: 179 (peptide)
peptide: KWFLICFWE
HELM: PEPTIDE1{K.W.F.L.I.C.F.W.E}$PEPTIDE1,PEPTIDE1,1:R3-9:R3$$$V2.0
SMILES: CC[C@H](C)[C@@H]1NC(=O)[C@H](CC(C)C)NC(=O)[C@H](Cc2ccccc2)NC(=O)[C@H](Cc2c[nH]c3ccccc23)NC(=O)[C@@H](N)CCCCNC(=O)CC[C@@H](C(=O)O)NC(=O)[C@H](Cc2c[nH]c3ccccc23)NC(=O)[C@H](Cc2ccccc2)NC(=O)[C@H](CS)NC1=O
B11: SEQ ID NO: 183 (peptide)
peptide: KWFLISAWE
HELM: PEPTIDE1{K.W.F.L.I.S.A.W.E}$PEPTIDE1,PEPTIDE1,1:R3-9:R3$$$V2.0
SMILES: CC[C@H](C)[C@@H]1NC(=O)[C@H](CC(C)C)NC(=O)[C@H](Cc2ccccc2)NC(=O)[C@H](Cc2c[nH]c3ccccc23)NC(=O)[C@@H](N)CCCCNC(=O)CC[C@@H](C(=O)O)NC(=O)[C@H](Cc2c[nH]c3ccccc23)NC(=O)[C@H](C)NC(=O)[C@H](CO)NC1=O
B12: SEQ ID NO: 187 (peptide)
peptide: KWFLISAWE
HELM: PEPTIDE1{[ac].K.W.F.L.I.S.A.W.E}$PEPTIDE1,PEPTIDE1,2:R3-10:R3$$$V2.0
SMILES: CC[C@H](C)[C@@H]1NC(=O)[C@H](CC(C)C)NC(=O)[C@H](Cc2ccccc2)NC(=O)[C@H](Cc2c[nH]c3ccccc23)NC(=O)[C@@H](NC(C)=O)CCCCNC(=O)CC[C@@H](C(=O)O)NC(=O)[C@H](Cc2c[nH]c3ccccc23)NC(=O)[C@H](C)NC(=O)[C@H](CO)NC1=O
B13: SEQ ID NO: 200 (peptide)
peptide: KWFLIAFWE
HELM: PEPTIDE1{[ac].K.W.F.L.I.A.F.W.E}$PEPTIDE1,PEPTIDE1,2:R3-10:R3$$$V2.0
SMILES: CC[C@H](C)[C@@H]1NC(=O)[C@H](CC(C)C)NC(=O)[C@H](Cc2ccccc2)NC(=O)[C@H](Cc2c[nH]c3ccccc23)NC(=O)[C@@H](NC(C)=O)CCCCNC(=O)CC[C@@H](C(=O)O)NC(=O)[C@H](Cc2c[nH]c3ccccc23)NC(=O)[C@H](Cc2ccccc2)NC(=O)[C@H](C)NC1=O

Each binder was assayed against T1, β-catenin (assay: cell-based or functional assay).
With H-KMWILICFWG-OH [SEQ ID NO: 113] the “Wnt Reporter EC50” value was over 30 µM. H-HMWILICFWG-OH [SEQ ID NO: 114] was tested, and the “Wnt Reporter EC50” value was at most 7.5 µM. In the case of H-RMWILICFWG-OH [SEQ ID NO: 115], the “Wnt Reporter EC50” value is reported as > 15 µM and ≤ 22.5 µM. With H-RMWILISFWG-OH [SEQ ID NO: 124] the “Wnt Reporter EC50” value was > 7.5 µM and ≤ 15 µM. For B1, the “Wnt Reporter EC50” value was > 7.5 µM and ≤ 15 µM. In the case of B2, the “Wnt Reporter EC50” value is reported as > 15 µM and ≤ 22.5 µM. With B3 the “Wnt Reporter EC50” value was at most 7.5 µM. H-KWILICFWG-OH [SEQ ID NO: 117] was tested, and the “Wnt Reporter EC50” value was > 15 µM and ≤ 22.5 µM. In the case of H-HWILICFWG-OH [SEQ ID NO: 118], the “Wnt Reporter EC50” value is reported as at most 7.5 µM. With H-RWILICFWG-OH [SEQ ID NO: 119] the “Wnt Reporter EC50” value was > 7.5 µM and ≤ 15 µM. In the case of B4, the “Wnt Reporter EC50” value is reported as at most 7.5 µM. H-MWI[αMeL]ICFWG-OH [SEQ ID NO: 130] was tested, and the “Wnt Reporter EC50” value was > 22.5 µM and ≤ 30 µM. For H-M[αMeW]ILISFWG-OH [SEQ ID NO: 134], the “Wnt Reporter EC50” value was over 30 µM. H-MWFLICH[Trp(3-Me)]G-OH [SEQ ID NO: 135] was tested, and the “Wnt Reporter EC50” value was > 7.5 µM and ≤ 15 µM. H-MWFLICH[Trp(1-Me)]G-OH [SEQ ID NO: 140] was tested, and the “Wnt Reporter EC50” value was > 15 µM and ≤ 22.5 µM. For B5, the “Wnt Reporter EC50” value was > 7.5 µM and ≤ 15 µM. With H-MWFLIQFWG-OH [SEQ ID NO: 143] the “Wnt Reporter EC50” value was > 7.5 µM and ≤ 15 µM. H-MWFLICHWG-OH [SEQ ID NO: 145] was tested, and the “Wnt Reporter EC50” value was > 7.5 µM and ≤ 15 µM. B6 was tested, and the “Wnt Reporter EC50” value was over 30 µM. With H-MWILISYWG-OH [SEQ ID NO: 152] the “Wnt Reporter EC50” value was at most 7.5 µM. In the case of H-MWFLIHFWG-OH [SEQ ID NO: 163], the “Wnt Reporter EC50” value is reported as at most 7.5 µM. With B7 the “Wnt Reporter EC50” value was at most 7.5 µM. With B8 the “Wnt Reporter EC50” value was at most 7.5 µM. B9 was tested, and the “Wnt Reporter EC50” value was at most 7.5 µM. B10 was tested, and the “Wnt Reporter EC50” value was at most 7.5 µM. With B11 the “Wnt Reporter EC50” value was at most 7.5 µM. For B12, the “Wnt Reporter EC50” value was > 7.5 µM and ≤ 15 µM. B13 was tested, and the “Wnt Reporter EC50” value was at most 7.5 µM.
